Values joined by “and” are separate entries in the source; they are usually repeats but may differ in a detail not shown here. Equal values may be shown once.
Molecular target: smBiT–β-arrestin2 (UniProt P32121)
Assay: split reporter

Chain of UniProt P32121 (P32121 whole entry): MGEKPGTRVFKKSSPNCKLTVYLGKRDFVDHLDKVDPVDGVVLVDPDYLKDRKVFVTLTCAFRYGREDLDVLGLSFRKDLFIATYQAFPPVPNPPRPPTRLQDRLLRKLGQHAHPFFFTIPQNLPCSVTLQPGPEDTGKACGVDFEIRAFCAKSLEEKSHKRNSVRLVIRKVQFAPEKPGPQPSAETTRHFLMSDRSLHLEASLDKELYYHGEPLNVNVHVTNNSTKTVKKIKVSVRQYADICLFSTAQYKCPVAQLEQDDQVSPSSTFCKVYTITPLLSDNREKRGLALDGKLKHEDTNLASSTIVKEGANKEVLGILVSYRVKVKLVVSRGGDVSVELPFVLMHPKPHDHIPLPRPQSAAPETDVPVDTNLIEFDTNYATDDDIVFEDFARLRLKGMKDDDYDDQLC

Gαi-LgBiT (from UniProt P63096 1-354) (natural protein)
other: -7.6 and -5.9

From publication PMC9890572
